In PMC7712654 (2020):

Target: T1, CTI2 (Arabidopsis thaliana, UniProt Q9M8T2)
T1 chain: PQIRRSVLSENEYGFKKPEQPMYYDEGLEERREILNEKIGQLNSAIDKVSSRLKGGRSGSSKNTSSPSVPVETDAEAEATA
Assay: MST

Kd: 1400 nM
B1: alphaCT (protein)
chain: INMKKREAVFSDSRKLQGEVDKLKEQILKAKETSTEAEPSSEVLNEMIEKLKSEIDDEYTEAAIAVGLEERLTAMREEFSKASSEEHLMHPVLIEKIEKLKEEFNTRLTDAPNYESLKSKLNMLRDFSRAKAASEATSLKKEINKRFQEAVDRPEIREKVEAIKAEVASSGASSFDELPDALKEKVLKTKGEVEAEMAGVLKSMGLELDAVKQNQKDTAEQIYAANENLQEKLEKLNQEITSKIEEVVRTPEIKSMVELLKVETAKASKTPGVTEAYQKIEALEQQIKQKIAEALNTSGLQEKQDELEKELAAARELAAEESDGSVKEDDDDDEDSSESGKSEMVNPSFA
